Results reported in patent US20170326249A1 (Bristol-Myers Squibb, published 2017).

molecular target: T1, Glypican-3 (UniProt P51654 25-559, limits assumed); test: Biacore (SPR)
T1 construct: also called GPC3

| Kd [nM] | koff [s⁻¹] | kon [M⁻¹ s⁻¹] | Binder |
| --- | --- | --- | --- |
| 0.9 | 0.0016 | 1.7e+06 | Antibody C (antibody, human IgG1, kappa, V domains shown, Variable-region variant of GPC3.1, IgG1/kappa; also called variant antibody C) VH: EVQLVQSGAEVKKPGESLKISCKGSGYSFTRYWIAWVRQMPGKGLEWMGIIFPGDSHTGYSPSFQGQVTISADRSISTAYLQWSSLKASDTAMYYCARTREGYFDYWGQGTLVTVSS VL: not shown |
| 2.7 | 0.0029 | 1.1e+06 | Antibody A (antibody, human IgG1, kappa, V domains shown, Variable-region variant of GPC3.1, IgG1/kappa; also called variant antibody A) VH: EVQLVQSGAEVKKPGESLKISCKGSGYSFTSYWIAWVRQMPGKGLEWMGIIFPGDSHTGYSPSFQGQVTISADRSIRTAYLQWSSLKASDTAMYYCARTRQGYFDYWGQGTLVTVSS VL: not shown |
| 2.2 | 0.0036 | 1.7e+06 | Antibody B (antibody, human IgG1, kappa, V domains shown, Variable-region variant of GPC3.1, IgG1/kappa; also called variant antibody B) VH: EVQLVQSGAEVKKPGESLKISCKGSGYSFTRYWIAWVRQMPGKGLEWMGIIFPGDSHTGYSPSFRGQVTISADKSISTAYLQWSSLKASDTAMYYCARTREGYFDYWGQGTLVTVSS VL: not shown |
